The values that follow are results of earlier work, collected in PMC3437676.

In this series the target is Asp25 (UniProt position 515, KEALLDTGADD). Put plainly: NMR. The conditions noted are these: free model peptide.

As to “HIV-1 protease model peptide, residues 20-30 (Human immunodeficiency virus 1)”, the pKa entry is recorded as “near 4.0”.
